From US20120245221A1, “ANTI-APOPTOTIC AGENTS AND USES THEREOF” (priority 2009, published 2012)

Tests used:
Schwann cells [1] = test: TNF-α and TGF-β induced apoptosis, TUNEL assay; type: cell-based, human; details: TNF-α 20 ng/ml and TGF-β 40 ng/ml
Method: (§1) Infected Schwann cells, Sc-Red cells, and Sc-PDNF cells were treated for 24 hours with 100 to 500 μM H2O2 with or without pretreatment with the Akt inhibitor Akti VIII (10 μM), fixed, and visualized by fluorescence microscopy after staining with DAPI and TUNEL reagents with the In Situ Cell Death Detection kit (Roche). Cell survival was measured by MTT-based CellTiter kit (Promega). Alternatively, Sc-Red and Sc-PDNF cells were grown for 4 days in DMEM, 1% bovine serum albumin (BSA) with or without TNF-α (20 ng/ml) and TGF-β1 (40 ng/ml) and with or without Akti VIII (10 μM).

Schwann cells [2] = type: cell-based, human; details: 100 μM H2O2, 24 hours
Method: (§2) Immortalized human Schwann cells (54) were maintained in DMEM supplemented with 10% FCS and penicillin/streptomycin at 37° C. in 5% CO2. Infections were performed with T. cruzi trypomastigotes (Silvio strain) at 2×10^5 parasites/ml or at a parasite:cell ratio of 50:1. After 2 or 3 hours, monolayers were washed to remove unattached parasites and cells were then maintained in medium containing 2% FCS for 3 to 5 days to complete the intracellular infection cycle.
as §1

Akt [3] = test: Akt-dependent phosphorylation of PDNF in Schwann cells (immunoprecipitation with TCN-2, Western blotting); type: cell-based, human
Method: To provide further evidence that the phosphorylation of PDNF depended on host […], T. cruzi-infected Schwann cells were treated with LY294002, a pharmacological inhibitor of PI3K, which phosphorylates and activates Akt (10), and with Akti VIII, a specific allosteric inhibitor of Akt that prevents the phosphorylation of Akt at Ser^473 and Thr^308, which is critical for the activation of Akt (25). Lysates of treated cells were assayed for phosphorylated Akt (pAkt) and, after immunoprecipitation with a PDNF-specific antibody, for the presence of Akt-phosphorylated substrates. […] The conclusion that PDNF was a substrate of Akt was further reinforced by in vitro kinase assays.
(§3) Cell monolayers were lysed with lysis buffer (20 mM tris-HCl (pH 7.5), 150 mM NaCl, 1 mM EDTA, 1% Triton X-100, 2.5 mM sodium pyrophosphate, 1 mM glycerophosphate, 1 mM Na3VO4, 1 μg/mL leupeptin and 1 mM phenylmethylsulfonyl fluoride (PMSF)) on ice for 10 min, cleared by centrifugation (12,000×g for 10 min at 4° C.) and immunoprecipitated with an antibody specific for Akt-phosphorylated substrate or with TCN-2 at 4° C. overnight Immunoprecipitates were collected with protein G-Sepharose for 2 hours at 4° C., washed with lysis buffer, and resuspended in SDS-sample buffer for SDS-PAGE and Western blotting analysis. In other experiments, total cell lysates (30 to 50 μg of protein) were resolved by SDS-PAGE, transferred to nitrocellulose membranes, and incubated with the relevant primary antibodies, followed by incubation with HRP-conjugated secondary antibody and visualization by ECL.

Schwann cells [4] = test: H2O2-induced apoptosis, TUNEL assay; type: cell-based, human
Method: as §1

[5] = test system: bacterially-expressed PDNF (recombinant full-length PDNF, clone 19Y, expressed in E. coli)
[6] = biological target: Akt kinase, endogenous protein of immortalized human Schwann cells (human) (UniProt P31749); test: cell-based or functional assay
[7] = test system: transcription factor FOXO; test: cDNA microarray, Sc-PDNF vs Sc-Red cells: FOXO mRNA; type: cell-based, human; details: PDNF-expressing Schwann cells vs control cells
Method: (§4) These analyses were performed as described previously (55, 56). The concentration and quality of total RNA isolated from Sc-Red cells and Sc-PDNF cells were estimated by spectrophotometry (A260 nm/A280 nm of 1.9 to 2.1) and by agarose gel electrophoresis. Hybridization and data analysis were performed by the Tufts Expression Array Core with cDNAs prepared from Sc-Red cells and Sc-PDNF cells labeled with aminoallyl (aa)-dUTP Cy3 or Cy5 dyes, respectively. The two differently dye-labeled cDNAs were hybridized with the same microarray slide containing 48,500 human genes (Microarrays Inc) for 16 hours. After washing, the slide was scanned at 550 nm and 649 nm for Cy-3 and Cy-5 dyes, respectively, in a ScanArray 4000 scanner (PerkinElmer). Images were overlaid and analyzed with QuantArray spot quantification software (Packard BioChip Technologies). The ratio of both fluorescence intensities for each spot reflected the ratio of each gene expressed in the control and treatment samples. […] For each gene, ratios of red (Cy-5) over green (Cy-3) intensities (I) were calculated and normalized through a Lowess Fit of the log2 ratios (log2(Icy-5/Icy-3)) over the log2 of the total intensity (log2(Icy-5. Icy-3)). Mean ratios were calculated from the duplicate spots, and only values with a covariance (CV) b0.5 were further taken into account. […]

other protein kinases = test: cDNA microarray, Sc-PDNF vs Sc-Red cells: other protein kinase mRNAs; type: cell-based, human; details: Schwann cells expressing PDNF vs control cells
Method: as §4

Akt2 = test: Real-time PCR, Sc-PDNF vs Sc-Red cells: Akt2; type: cell-based, human; details: PDNF-expressing cells vs control cells, p<0.05
Method: (§5) These assays were performed as described previously (57, 58). In brief, RNA was isolated with the Trizol reagent and chloroform, cDNA was synthesized from 500 ng of total RNA with Superscript III reverse transcriptase primed with random hexamers, and quantitative PCR reactions were performed with QuantiTect SYBR Green PCR kit (Qiagen) on an Applied Biosystems 7300 Real-Time PCR system. Conditions for the PCR reactions were: 95° C. for 15 min, followed by 50 cycles at 94° C. for 15 s, 54° C. for 30 s, and 72° C. for 45 s, concluding with a dissociation stage to measure amplification product specificity. Primers used to calculate Akt expression were synthesized as described previously (57). Experiments were performed in triplicate, and fold differences were calculated by the 2^−ΔΔCt method (ΔΔCt=(Cttarget gene−Ctb-actin)treated−(Cttarget gene−Ctb-actin)untreated) as described previously (58).

Akt3 [8] = test: Real-time PCR, Sc-PDNF vs Sc-Red cells: Akt3; type: cell-based, human; details: PDNF-transfected Schwann cells vs control cells
Method: as §5

Akt3 [9] = test: cDNA microarray, Sc-PDNF vs Sc-Red cells: Akt3 mRNA; type: cell-based, human; details: Schwann cells expressing PDNF vs control cells
Method: as §4

caspase-9 = test: cDNA microarray, Sc-PDNF vs Sc-Red cells: caspase-9 mRNA; type: cell-based, human; details: PDNF-expressing Schwann cells vs control cells
Method: as §4

Akt [10] = test: Coimmunoprecipitation of PDNF and Akt; type: binding; details: lysates of T. cruzi-infected human Schwann cells, 4 days; IP with mAb TCN-2
Method: We infected Schwann cells with T. cruzi for 2 hours, removed parasites from the medium overlay by washing, and cultured the cells for 4 days to allow intracellular parasites to differentiate, grow, and multiply. Lysates of uninfected and infected Schwann cells were immunoprecipitated with the monoclonal antibody (mAb) TCN-2, which is specific for the C-terminal tandem repeat unit of PDNF (FIG. 1A) (23), and Western blots of these immunoprecipitates were incubated with PDNF— and Akt-specific antibodies.
as §3

Akt [11] = test: Western blotting of pAkt (activation of Akt) in Schwann cells; type: cell-based, human; details: Schwann cell-expressed PDNF compared to control transfected cells
Method: as §2
The coding region of the gene encoding PDNF (formerly T. cruzi neuraminidase, or TCNA) was amplified from the TS19y clone (20) with the primers TCNA-F: 5′-[…]-3′ (SEQ ID NO: 11) and TCNA-R: 5′-[…] (SEQ ID NO: 12) (restriction sites for XhoI and SacII are underlined) and inserted into the pIRES2-DsRed-Express vector (Clontech). Selected recombinant plasmids were purified with the Qiagen kit, sequenced at Tufts University Core facility, and used for transfections. Cells were plated at 1×10^5 cells/ml in 100-mm plates 20 hours before their transfection with 10 μg of total DNA per plate with the FuGENE HD transfection reagent (Roche Diagnostics) as recommended by the manufacturer. Transfected cells were selected with G418 (1 mg/ml) and analyzed for the presence of PDNF by Western blotting and trans-sialidase activity assays (26). […]

[12] = test system: mitochondrial protein BAX; test: cDNA microarray, Sc-PDNF vs Sc-Red cells: BAX mRNA; type: cell-based, human; details: PDNF-expressing Schwann cells vs control cells
Method: as §4

[13] = T. cruzi-infected Schwann cells treated with inhibitor for 24 hours

## O=c1[nH]c2ccccc2n1C1CCN(Cc2ccc(-c3nc4cc5[nH]cnc5cc4nc3-c3ccccc3)cc2)CC1 [Akti VIII]
Schwann cells [1]; Akti VIII 10 μM
  effect of Akt inhibitor on anti-apoptotic effect of intracellular PDNF: abolished
Schwann cells [2]; Sc-PDNF cells pretreated with Akti VIII 10 μM
  effect of Akt inhibitor on survival-promoting activity of PDNF: abrogated
Schwann cells [2]; T. cruzi-infected Schwann cells pretreated with Akti VIII 10 μM
  effect of Akt inhibitor on resistance of infected cells to oxidative stress: lost
Akt [3]; Schwann cells transfected with plasmid encoding PDNF, inhibitor for 24 hours
  extent of the phosphorylation of PDNF: substantially decreased
Akt [3]; [13]
  abundance of activated Akt (pAkt): reduction in abundance of activated Akt
  abundance of unphosphorylated PDNF: did not affect
  phosphorylation of PDNF: inhibition of the phosphorylation of PDNF

## OO [H2O2, hydrogen peroxide]
Schwann cells [4]; 100 μM H2O2, 6 hours
  apoptosis induced in uninfected Schwann cells: ~25%
Schwann cells [4]; 500 μM H2O2, 24 hours
  uninfected cells with apoptosis-related DNA damage: ~90%
Schwann cells [2]
  cell survival of uninfected Schwann cells: only half of the cells survived

## Akt kinase, endogenous protein of immortalized human Schwann cells
[5]
  in vitro kinase assay: phosphorylation of bPDNF by immuno-purified Akt, Western blot with antibody against Akt-phosphorylated substrates: generated phosphorylated PDNF in vitro in a dose-dependent and ATP-dependent manner

## PDNF expressed in the cytosol of human Schwann cells transfected with pIRES2-DsRed-Express carrying
[6]
  apoptosis (TUNEL assay) of Sc-PDNF cells in TNF-α (20 ng/ml) and TGF-β (40 ng/ml): 2.5 % of cells

## PDNF expressed in the cytosol of human Schwann cells transfected with pIRES2-DsRed-Express carrying (enzyme)
[6]
  abundance of pAkt (Ser^473), Western blot with scanning densitometry, Sc-PDNF against control transfected cells: 5 fold
  abundance of pAkt (Thr^308), Western blot with scanning densitometry, Sc-PDNF against control transfected cells: 6 fold

B1: PDNF: Trypanosoma cruzi membrane-bound neuraminidase/trans-sialidase; clone 19Y expressed in Schwann cell cytosol from pIRES2-DsRed-Express plasmid (protein, listed as Trypanosoma cruzi)
chain: MGKTVVVASRMFWLMFFVPLLLAICPSEPAYALAPGSSRVELFKRKNSTVPFEDKAGKVTERVVHSFRLPALVNVDGVMVAIADARYDTSNDNSLIDTVAKYSVDDGETWETQIAIKNSRVSSVSRVVDPTVIVKGNKLYVLVGSYYSSRSYWSSHGDARDWDILLAVGEVTKSTAGGKITASIKWGSPVSLKKFFPAEMEGMHTNQFLGGAGVAIVASNGNLVYPVQVTNKKKQVFSKIFYSEDDGKTWKFGKGRSDFGCSEPVALEWEGKLIINTRVDWKRRLVYESSDMEKPWVEAVGTVSRVWGPSPKSNQPGSQSSFTAVTIEGMRVMLFTHPLNFKGRWLRDRLNLWLTDNQRIYNVGQVSIGDENSAYSSVLYKDDKLYCLHEINTDEVYSLVFARLVGELRIIKSVLRSWKNWDSHLSSICTPADPAASSSESGCGPAVTTVGLVGFLSGNASQNVWEDAYRCVNASTANAERVRNGLKFAGVGGGALWPVSQQGQNQRYRFANHAFTLVASVTIHEAPRAASPLLGASLDSSGGKKLLGLSYDEKHQWQPIYGSTPVTPTGSWETGKRYHLVLTMANKIGSVYIDGELLEGSGQTVVPDGRTPDISHFYVGGYKRSDMPTISHVTVNNVLLYNRQLNTEEIRTLFLSQDLIGTEAHM
[7]
  FOXO mRNA reduced in abundance: ~4.0 fold
Other protein kinases
  abundance of the mRNAs for other protein kinases: unaltered
Akt2
  increase in the mRNA for Akt2: ~5.0 fold
Schwann cells [1]; PDNF in Schwann cell cytosol, 4 days
  cells that underwent apoptosis (TUNEL-positive): 2.5%±0.7
Akt3 [8]
  increased expression of the gene encoding Akt3: 3 fold
Akt3 [9]
  Akt3 mRNA more abundant: ~3 fold
caspase-9
  caspase-9 mRNA reduced in abundance: ~5.0 fold
Akt [10]
  physical interaction between PDNF and Akt: coimmunoprecipitated PDNF and Akt
Schwann cells [2]; Schwann cells transfected with plasmid encoding PDNF
  protection from H2O2-induced oxidative stress: protected from H2O2-induced oxidative stress
Akt [11]
  increase in the abundance of pAkt (Ser473): five-fold
  increase in the abundance of pAkt (Thr308): six-fold
[12]
  BAX mRNA reduced in abundance: ~2.6 fold
